# Measurements published in the DeepSol protein solubility set.
# Experiment: soluble on expression in E. coli; label from the status in PepcDB or PDB records
row,Sequence,soluble on expression in E. coli
1,MIRIAYVSTYPPRRCGLATFTEHLRQSIDGVRGPSDGDRVIVLYNESDGDDAYRNDPAYWPLPAQNRAAYAEMAKRVNESDIDVVLLQHEFGIFGGEAGEYILDFIAALNKPLVTTFHTVFADPPLPYRPIQGKIAAASDAIIVMNRQAIPYLVKAFGLPEEKIVYIPHGAPGPSSENRDSLRRRLGFSGRKVMLTFGLLSRGKGIESVLAALPGVVRKVPEALYVIAGQTHPEVKKREGEAYREELKSLIHRLGLEHHVHMEDRYFSEEELIDYLTACDLYVTPYPGMQQITSGTLAYAVGVGRPVVSTPYEHARDLLRGCEELLLPYGDTTAWEERLGQLLADEAALKRWEEKVRQIGANTHWPRVGEQHVALFARMCAAKRGEVKTIGTVSH,not soluble
2,MADTTILDTTCSSTLAANVEFSHATDSAIGISLKNATITEAEGVPNLKETGYDCVRYMGTCNGGQIYLGRERKKLKDYVAIKKFAIDDVDDYAAIAKESSNLRLMHHPNIIELCECFVYERSIYQITPAMNLGSLFDIVFEYMKWGINEKSAAAITRQLLDALSYLHQRRYIHRDLKPKHILIDSSGNVKLSGFRFMIELNHHLDCVFEFDAHLQNQLYYLAPEVLAQNIHGYTSKSDIYMLGISICEAINGVMPFGELEPLEMLHRKLNGQVPRPVDMISLKDDQKMGLDISHRPQEHLTRRFSKEMHEFIANCLDYDPQQRGSASDLKSSAWLGSKIHKNLGPVDVRQELNLDYAHFDLSLWEQEPLIPMEPDQKYEIVFDYSPIS,not soluble
3,MGSDKIHHHHHHMAYRSAPIADDIIWRAAPQPEDASLADAVRETIASTRKHLLDFIRLDETPPPAAMTLAQWTRPATFRSLLAAYSDHIYRHTPGLPRENKPLLSLWAQWYIGLMTPPLMLALLTQARAINVSAEHIHVEFHETGRAACFWLDVHQDNLATERSPEERMETLIVSALQPVIQALEATGDINAKLIWSNTGYLINWYLTEMKPLLGEALLATLRQRCFFEKQLSDGQDNPLWRTVVMRDGLLVRRTCCQRYRLPDVQQCGDCTLK,not soluble
4,MAHHHHHHMADGAAMSLSGQRIPLLKPTLSKWSRQLRSDIYDELLKLPLRYALHDFRTLQAHIHAVPATATNASCTAAAGERLPPGVYHASSGLSSASPDAPAYYAVAGRDSAVGYAPPLGPADPVDVIPFFVHRSSNGHLPGKVYSMNAKTLMPAFYMRIQNIEGDMFRFEEELMKIFPTKKIFVRSHSVYVYNVNLDGRAVLHHWLLGLGF,soluble
5,MLDRFATKQTQEKLKIGVVGVFAIGCLFPLLSDFKRSYPHIDLHISTHNNRVDPAAEGLDYTIRYGGGAWHDTDAQYLCSALMSPLCSPTLASQIQTPADILKFPLLRSYRRDEWALWMQTVGEAPPSPTHNVMVFDSAVTMLEAAQAGMGVAIAPVRMFTHLLSSERIVQPFLTQIDLGSFWITRLQSRPETPAMREFSRWLTGVLHKTSGSHHHHHH,soluble
6,AIALVGPAPTTDGSAENTLNEKRLVHGSIAFWLGPRAPQTKTHRWTVYVRGARDPLEDLSLYIQKVEFVLHESFADPVRVVKEPPFCLTEHGWGEFEVIIRLFPISDPDKPVEMYHPLRLFPSVGQELTEKPVVSEHLDVLVFSQPAPEVERALHRSDVARMPSDCWGDLMPLFGGDLHQVEEEDLRKVQQARERVRQQIQATRLQYEALTAELARARTHALHRELS,soluble
7,MLLNAVNQNQPTIAAEINYIKPNIQATFDLSTSKKSADTLTEQVDKRVVEITDARLLAKTATLKEDGFGLVANKYHMADYFDDAMVSTELYPQIIKHLMSLTNASKGVVFDHTIRSVEDKLHRAEKRSPIHTVHNDYVASSAQHRLHIELEKQGLKASDYHRYQFINTWIPLVDVVLDSPLAFADMRSVTSEQSHLLQVAYPDRVGEIEGFSYNPNNRWFYFSRMTSKEQLNFKVFDSDKSNAVNRTPHSAFLLPSVAENVQSRVSIELRTILLFNKLEHHHHHH,not soluble
8,MTDKVIATHNGNFHADDVFSIAALKNIFPSFKLIRTRDLEVIGKADIVIDVGGEYDADAGRFDHHQRGGAGERENGIPYSSFGLIWQKYGLAICQGNQEVANSVDAGLVSTIDAIDCGHVEGVAQGISLSQTISMFNPTWQEDSHFDTCFDEAVDFASRVLTRFIASASGGINAKDIVAKAIDNAEDSRVIVLEKYTPWKRTVHALSEEALYMVYPSPSGQWRIQTVPVEPGSFEDRKPLPKQWAGLSDDALKEVTGIDDAMFCHNGLFIAGAESFESTMKMASIALQALEHHHHHH,soluble
9,MVQPDDVLLGRYKIRFDIGPGRIGRIFAVLDQQDQSRSRVKVIKVLPMVAGEQFLDDPQTYNEFDFLNHLRGTIGVPNIIQHFQVGRERVMMMDKYLATLEQFRTRCDDRRISDLNIIKIAVRLVNVLEAIHQKGVIHRDLKTTNVMIRSRGQSEVNLVLIDYGLSTFNGTPPRALAPDAKSPEIMFRGHTHVSPALEEGLKADAVDDLQMLAIMLIWCSAYHPFGPIGQESSRKKAEFITNPVKYVKGRPFLRPLMTAIMAQPRGTRPNYQAILDAAAGPFPIDDIRDSLKTEISLLGVRFL,not soluble
10,MPQINTVPGPHLRRQVWLRTKSGQRLAYAVSWWDASHVDEYLQNRSLPIWDSLSRLHTELYRDIQAIYCGHNRTLAKAFGQEGPFWGRHYLFWHDRKPLTLIYEIFSPYLSRYLGELPRPKFELEHHHHHH,not soluble
11,MYKQLEKLITLTNNDLNLVNRRFGQRTDITSEQLELLRILFNYDRLSQYDLTMKISREQSIVSRWIKKLVLKGYITSQQSSEDLRCKELILTDQARTLISQINNARCELIEARCQCLSEVELDNLNQLLDKLNQRRISL,not soluble
12,MGSDKIHHHHHHMGYVAVRGGSEAISRAEELVTCLRLLGGSTPLQLPQIRDQLRHAVSRAMHEGALYAPLLAALALKQAEGDSIEAAFLLRAYRTTLPRVMASLPASGRDISCLRRISASFKDIPGGQILGPASDYLIRLLQPDLAHETIVDVARAAEQYAALVEKGGIRSGEWGRFPKVADYMRQEQMIVDIPADSEETEPFDITREPLVFPCPRSARLQALMQADTGSLMCLAYSSVRGYGDAHPALVELRYGYLAIQVAHPLTGEPITIGEIEVTETEVASKAHSVTSRTGTPRFNVGYGFAFGQSELKTMSMAILDSVLTQARAGSLAGESGPAADEEFVLLHTDGIEASGFVAHFKLPHYVTFAADLSVLDRARDHHAQQQSRLHQLVDQALTE,not soluble
13,MKLWAIYFEPEDWVGFRETRRFSFSDRVESVFPSSFPFYGAVRTALLMKNQKFDPGDVERAGDVRMFGPFVFENTPEGRKHYFPLPRNIYKTDSGYRVTPIVEIDGVYLPWKPEYKMDSKESTSGGLIELSDLELLRSNTQGVCKFDLVSAEKIFKKETHIGVAFEENRKKVKERMIYSISYYRFYDGGFFMFTDDERTVELVSKLDGVFLGMKSKWSAVEVEELNTTAFDPPDYKNVAVALITPAVFDGGGMPKDKTILGKRVLTTAGIRKQVVSGWDLRENKPKKIYHAVSPGAVYYLEGKVNGHVLNESKFTDFGFGRCIFMKYEKL,soluble
14,MGSDKIHHHHHHMSGSKIKIALFNDTDFRVNIGCRLTSQGLKQQILDAFPAAEITSIGFNFAAFRKEFPKSTSAGGYELSDIETRLSTAYGEGAVDHIRAADFVILQPEGSLDHRTTAEGLATFFTPILTARKLGKPFAVLNGTIPIYEGERSDYLKGLFRELGHVAARDEISAEYYGIEFLADAAFLRISPAPVADRDGCLITTGARNNAEEDVEILKAALKICEAWKLRPVVLTHAVERFSPYEAEIIGRGGIFAETASIEHAAETISKCRLHIGGRYHMAIFSLLCNVPSLLFDVKTHKNQWLERYSPLITLVHPHTDLDAAAAAVLSGGVSQGHPGSTAAEKYVHFLKRAMAEQPL,not soluble
